Results: patent US20100028342A1

Experiments:
[1] = target: recombinant extracellular portion of human IGF-IR (soluble IGF-IR) (human) (UniProt P08069); assay: competition: cold IGF-II against radiolabeled IGF-I on immobilized IGF-IR; cold IGF-II as competitor
[2] = target: recombinant extracellular portion of human IGF-IR (soluble IGF-IR) (human) (UniProt P08069); assay: BIAcore 3000, soluble IGF-IR immobilized on the sensor chip, full IgG in solution
[3] = target: recombinant extracellular portion of human IGF-IR (soluble IGF-IR) (human) (UniProt P08069); assay: human IGF-IR binding ELISA, repeated with the same sample of A12
[4] = target: recombinant extracellular portion of human IGF-IR (soluble IGF-IR) (human) (UniProt P08069); assay: human IGF-IR-based ELISA, column Binding (ED50)
[5] = target: recombinant extracellular portion of human IGF-IR (soluble IGF-IR) (human) (UniProt P08069); assay: competition: blocking of radiolabeled IGF-I binding to immobilized IGF-IR
[6] = target: recombinant extracellular portion of human IGF-IR (soluble IGF-IR) (human) (UniProt P08069); assay: ratio of plate binding: ED50 on human IGF-IR against the highest concentration tested on IR
[7] = target: recombinant extracellular portion of human IGF-IR (soluble IGF-IR) (human) (UniProt P08069); assay: ligand blocking of IGF-I binding to IGF-IR, column Blocking (EC50)

Sequence of antibody A12 (fully human IgG1 anti-IGF-IR antibody) (VH): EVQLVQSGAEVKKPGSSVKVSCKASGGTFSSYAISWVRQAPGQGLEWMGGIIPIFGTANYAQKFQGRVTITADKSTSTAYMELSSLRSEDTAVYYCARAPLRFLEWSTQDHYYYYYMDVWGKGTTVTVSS
Sequence of antibody A12 (fully human IgG1 anti-IGF-IR antibody) (VL): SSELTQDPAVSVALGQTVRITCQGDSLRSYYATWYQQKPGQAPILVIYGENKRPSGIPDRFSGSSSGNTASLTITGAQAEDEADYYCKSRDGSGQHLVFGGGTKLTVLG

In the case of “IGF-II (from UniProt P01344 25-91) (ligand)”, the IC50 [1] is reported as 6 nM.
In the case of “antibody A12 (fully human IgG1 anti-IGF-IR antibody)”, the Kd [2] is reported as 0.041 nM, the koff [2] is reported as 3e-05 s⁻¹ and the kon [2] is reported as 720000 M⁻¹ s⁻¹. It also gave an EC50 [3] of 0.3 to 0.5 nM, an EC50 [4] of 0.3 nM and an IC50 [5] of 1 nM. For the same substance, the selectivity for IGF-IR in comparison to IR [6] was greater than 3000 fold and the EC50 [7] was 0.6 to 1 nM.
